The values that follow are results of earlier work, collected in publication PMC9590617.

For one data set, the target named is NPFFR1 (Homo sapiens) (UniProt Q9GZQ6).
The next data set concerns the target NPFFR2 (Homo sapiens) (UniProt Q9Y5X5).
Sequence of UniProt Q9Y5X5 (Q9Y5X5 whole entry): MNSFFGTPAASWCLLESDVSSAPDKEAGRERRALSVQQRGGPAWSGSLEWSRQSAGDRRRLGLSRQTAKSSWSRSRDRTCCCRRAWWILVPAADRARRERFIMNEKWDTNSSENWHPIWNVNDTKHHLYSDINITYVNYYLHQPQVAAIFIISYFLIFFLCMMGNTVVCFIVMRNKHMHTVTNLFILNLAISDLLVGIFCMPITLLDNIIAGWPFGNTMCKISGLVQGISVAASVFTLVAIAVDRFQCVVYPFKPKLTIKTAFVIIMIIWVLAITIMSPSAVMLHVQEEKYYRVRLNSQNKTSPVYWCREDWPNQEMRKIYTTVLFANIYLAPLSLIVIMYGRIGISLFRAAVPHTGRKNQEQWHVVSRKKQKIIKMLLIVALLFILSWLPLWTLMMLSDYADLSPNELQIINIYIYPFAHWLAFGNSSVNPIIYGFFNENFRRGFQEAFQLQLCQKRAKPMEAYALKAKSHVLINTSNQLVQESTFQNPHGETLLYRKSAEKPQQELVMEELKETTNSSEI

Sequence of UniProt Q9GZQ6 (Q9GZQ6 whole entry): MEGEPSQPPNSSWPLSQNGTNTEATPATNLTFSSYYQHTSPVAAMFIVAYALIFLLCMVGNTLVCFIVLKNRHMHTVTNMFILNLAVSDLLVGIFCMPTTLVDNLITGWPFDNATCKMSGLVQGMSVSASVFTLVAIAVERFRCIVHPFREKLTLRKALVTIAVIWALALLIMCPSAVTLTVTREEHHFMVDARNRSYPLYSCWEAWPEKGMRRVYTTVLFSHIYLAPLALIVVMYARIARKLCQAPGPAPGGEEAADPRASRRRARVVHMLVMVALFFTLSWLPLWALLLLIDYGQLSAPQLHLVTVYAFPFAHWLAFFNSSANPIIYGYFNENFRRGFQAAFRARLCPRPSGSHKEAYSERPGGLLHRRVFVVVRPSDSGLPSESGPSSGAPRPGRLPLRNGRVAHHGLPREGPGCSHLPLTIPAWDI

In the case of Neuropeptide FF (from UniProt O15130), the dissociation constant (Kd) (commonly the concentration at which binding is half-saturated) in the data set with NPFFR1 (Homo sapiens) was 1.13 nM; in the data set with NPFFR2 (Homo sapiens), 0.37 nM.
